Data taken from patent US20190218553, “VON WILLEBRAND FACTOR (VWF)-TARGETING AGENTS AND METHODS OF USING THE SAME” (DUKE UNIVERSITY, published 2019).

Tests used:
[1] = target: T1, von Willebrand factor (VWF) (Homo sapiens, UniProt P04275 P04275:764-2813); experiment: filter; Bmax 37%; 2 mM CaCl2, 37 C; conditions: tags: factor VIII free, Haematologic Technologies Inc; label: 5'-32P
Protocol: (§1) Affinity constants (Kd values) were determined using double-filter nitrocellulose filter binding assays (Rusconi et al, Thromb. Haemost. $4:841-848 (2000)). All binding studies were performed in binding buffer F (20 mM HEPES, pH 7.4, 150 mM NaCl, 2 mM CaCl₂, and 0.01% BSA) at 37° C. Human purified VWF (factor VIII free) was purchased from Haematologic Technologies Inc. (Essex Junction, Vt.) and used in the double-filter nitrocellulose filter binding assay to determine the Kd of the aptamers. Briefly, RNA were end-labeled at the 5′ end with T4 polynucleotide kinase (New England Biolabs, Beverly, Mass.) and [γ³²P] ATP (Amersham Pharmacia Biotech, Piscataway, N.J.) (Fitzwater and Polisky, Methods Enzymol. 267:275-301 (1996)). End-labeled RNA was diluted in binding buffer F, heat denatured at 65° C. for 5 minutes, and subsequently equilibrated at 37° C. Direct binding was performed by incubating trace ³²P-RNA with varying concentrations of VWF protein in binding buffer F at 37° C. for 5 min. The fraction of the nucleic acid-protein complex which bound to the nitrocellulose membrane was quantified with a phosphorimager (Molecular Dynamics, Sunnyvale, Calif.). Non-specific binding of the radiolabeled nucleic acid was subtracted out of the binding such that only specific binding remained (Wong and Lohman, Proc. Natl. Acad. Sci. USA 90:5428-5432 (1993)).

[2] = target: T1, von Willebrand factor (VWF); experiment: filter; Bmax 38%; 2 mM CaCl2, 37 C; conditions: tags: factor VIII free, Haematologic Technologies Inc; label: 5'-32P
Protocol: as §1

[3] = target: T1, von Willebrand factor (VWF); experiment: filter; Bmax 33%; 2 mM CaCl2, 37 C; conditions: tags: factor VIII free, Haematologic Technologies Inc; label: 5'-32P
Protocol: as §1

[4] = target: T1, von Willebrand factor (VWF); experiment: filter; Bmax 25%; 2 mM CaCl2, 37 C; conditions: tags: factor VIII free, Haematologic Technologies Inc; label: 5'-32P
Protocol: as §1

[5] = target: T1, von Willebrand factor (VWF); experiment: filter; Bmax 72%; 2 mM CaCl2, 37 C; conditions: Haematologic Technologies Inc, label: 5'-32P
Protocol: as §1

[6] = target: T1, von Willebrand factor (VWF); experiment: filter; Bmax 89%; 2 mM CaCl2, 37 C; conditions: tags: factor VIII free human purified VWF, Haematologic Technologies Inc; label: 5'-32P
Protocol: as §1

[7] = target: T1, von Willebrand factor (VWF); experiment: filter; Bmax 43%; 2 mM CaCl2, 37 C; conditions: tags: factor VIII free, Haematologic Technologies Inc; label: 5'-32P
Protocol: as §1

[8] = target: T1, von Willebrand factor (VWF); experiment: filter; Bmax 21%; 2 mM CaCl2, 37 C; conditions: tags: factor VIII free, Haematologic Technologies Inc; label: 5'-32P
Protocol: as §1

[9] = target: T1, von Willebrand factor (VWF); experiment: filter; Bmax 51%; 2 mM CaCl2, 37 C; conditions: tags: factor VIII free, Haematologic Technologies Inc; label: 5'-32P
Protocol: as §1

[10] = target: T1, von Willebrand factor (VWF); experiment: filter; NB (no binding); 2 mM CaCl2, 37 C; conditions: tags: factor VIII free, Haematologic Technologies Inc; label: 5'-32P
Protocol: as §1

[11] = target: T1, von Willebrand factor (VWF); experiment: filter; Bmax 53%; 2 mM CaCl2, 37 C; conditions: tags: factor VIII free, Haematologic Technologies Inc; label: 5'-32P
Protocol: as §1

[12] = target: T1, von Willebrand factor (VWF); experiment: filter; Bmax 63%; 2 mM CaCl2, 37 C; conditions: tags: factor VIII free, Haematologic Technologies Inc; label: 5'-32P
Protocol: as §1

[13] = target: T1, von Willebrand factor (VWF); experiment: filter; Bmax 44%; 2 mM CaCl2, 37 C; conditions: tags: factor VIII free, Haematologic Technologies Inc; label: 5'-32P
Protocol: as §1

CCCACGAACUGCCCUCGAUCGACGCACAGACGU (ssRNA, 2'-F C and U; 2'-OH A and G; 3' idT) [T74]
Kd [1]: 23 nM

B1: T25 vrt3 (ssRNA)
RNA: ACGAACUGCCCUCAGCUACUUUCAUGUUGCUGACGCACAGACGU
modifications: mAfCmGrArAfCfUrGfCfCfCfUfCrArGfCfUrAfCfUfUfUfCrAfUrGfUfUrGfCfUrGrAfCrGfCrAfCrArGrAfCmGfU-idT (m=2'-OMe, f=2'-F, r=2'-OH)
Kd [2]: 9.2 nM

B2: T25 vrt4 (ssRNA)
RNA: ACGAACUGCCCUCAGCUACUUUCAUGUUGCUGACGCACAGACGU
modifications: mAmCmGrArAfCfUrGfCfCfCfUfCrArGfCfUrAfCfUfUfUfCrAfUrGfUfUrGfCfUrGrAfCrGfCrAfCrArGrAmCmGmU-idT
Kd [3]: 5.9 nM

B3: T25 vrt24 (ssRNA)
RNA: ACGAACUGCCCUCAGCUACUUUCAUGUUGCUGACGCACAGACGU
modifications: rAfCrGrArAfCfUrGfCfCfCfUfCrArGfCfUrAfCfUfUfUfCrAfUrGfUfUrGfCfUrGrAmCrGfCrAfCrArGrAfCrGfU-idT
Kd [4]: 55 nM

ACGAACUGCCCUCGUAAGACGCACAGACGU (ssRNA, mAmCmGmAmAmCmUmGfCfCfCmUmCmGmUmAmAmGmAfCrGfCmAmCmAmGmAmCmGfUidT) [DTRI-011]
Kd ([5]; tags: factor VIII free): 3.8 nM

ACGAACUGCCCUCGAUCGACGCACAGACGU (ssRNA, 2'-F C9,C10,C11,C20,C22; ribo G21; rest 2'-OMe; 3' idT) [T59 vrt26]
Kd [6]: 18 nM

B4: T22 (ssRNA)
RNA: GGACGAACUGCCCUCAGCUACUUUCAUGUUGCUGACGCACAGACGACUCGCUG
modifications: 2'-F C and U; 2'-OH A and G
Kd [7]: 28 nM

CCGAACUGCCCUCAGCUAUUAUUAGCUGACGCACAGACGG (ssRNA, 2'-F C and U; 2'-OH A and G; 3' idT) [T30]
Kd [8]: 39.3 nM

B5: T10 (ssRNA)
RNA: GGGAGGUGGACGAACUGCCCUCAGCUACUUUCAUGUUGCUGACGCACAGACGACUCGCUG
modifications: 2'-F C and U; 2'-OH A and G; 3' idT
Kd [9]: 18.4 nM

B6: T12 (ssRNA)
RNA: GGGAGGAACUGCCCUCAGCUACUUUCAUGUUGCUGACGCACAGACGACUCGCUG
modifications: 2'-F C and U; 2'-OH A and G
binding result [10]: no binding

ACGAACUGCCCUCGAUCGACGCACAGACGU (ssRNA, mAfCmGmAmAmCfUmGfCfCfCfUmCmGmAmUmCmGmAfCmGfCmAmCmAmGmAfCmGfU-idT) [T59 vrt4]
Kd [11]: 364 nM

ACGAACUGCCCUCGAUCGACGCACAGACGUACACA (ssRNA, 2'-F C and U; 2'-OH A and G; 3' idT) [T81]
Kd [12]: 4.2 nM

B7: T84 vrt1 (ssRNA)
RNA: ACGAACUGCCCUCGAUCGACGCACAGACGUACACG
modifications: 2'-F C2,U7,C9,C10,C11,U12,C20,C22,C28,U30; ribo A1,G3,G8,A19,G21,A23,G29; rest 2'-OMe; 3' idT
Kd ([5]; tags: factor VIII free human purified VWF): 1.7 nM

ACGAACUGCCCUCGAUCGACGCACAGACGU (ssRNA, mAmCmGmAmAmCmUmGfCfCfCmUmCmGmAmUmCmGmAfCfGfCmAmCmAmGmAmCmGfUidT) [DTRI-007]
Kd [13]: 16 nM
